This note sets out measurements from paper PMC6237804, “Nonfilament-forming RecA dimer catalyzes homologous joint formation” (Nucleic Acids Research, 2018).

Data set [1] concerns the molecule itself. In words: scanning-probe microscopy in dynamic force mode (DFM); RecA variant (0.2 μM RecA-wt or npRecA dimer, 0.8 μM npRecA monomer) incubated with linear pUC119 dsDNA (2.0 μM), ATPγS (0.5 mM), MgCl2 (10 mM), Tris-HCl pH 7.5, DTT, 30 min at 37°C; fixed with glutaraldehyde (0.2%) on mica; filament formation on DNA; also done with circular phage ssDNA.
Data set [2] concerns the target npRecA monomer (UniProt P0A7G6 31-337, C117M;S118V;Q119R). In words: EMSA; no nucleotide cofactor; EMSA: standard reaction buffer (composition not in material), 4.5 uM (nt) ssDNA or 9.0 uM dsDNA, agarose gel, no fixation; 6-MI: 25 mM Tris-HCl pH 7.5, 10 mM MgCl2, 1 mM DTT, 25 C, 3.0 uM DNA; DFM: 0.5 mM ATPgS, 10 mM MgCl2, glutaraldehyde fixation. The conditions noted are these: protein: recombinant; label: FAM.

Data set [3] addresses RecA-3mΔC (UniProt P0A7G6 2-337, C117M;S118V;Q119R). In words: EMSA; 1.3 mM ATP; 'defective'; EMSA: standard reaction buffer (composition not in material), 4.5 uM (nt) ssDNA or 9.0 uM dsDNA, agarose gel, no fixation; 6-MI: 25 mM Tris-HCl pH 7.5, 10 mM MgCl2, 1 mM DTT, 25 C, 3.0 uM DNA; DFM: 0.5 mM ATPgS, 10 mM MgCl2, glutaraldehyde fixation. As to conditions: protein: recombinant; label: FAM.

RecA-3mΔC, sequence (P0A7G6 2-337 C117M/S118V/Q119R): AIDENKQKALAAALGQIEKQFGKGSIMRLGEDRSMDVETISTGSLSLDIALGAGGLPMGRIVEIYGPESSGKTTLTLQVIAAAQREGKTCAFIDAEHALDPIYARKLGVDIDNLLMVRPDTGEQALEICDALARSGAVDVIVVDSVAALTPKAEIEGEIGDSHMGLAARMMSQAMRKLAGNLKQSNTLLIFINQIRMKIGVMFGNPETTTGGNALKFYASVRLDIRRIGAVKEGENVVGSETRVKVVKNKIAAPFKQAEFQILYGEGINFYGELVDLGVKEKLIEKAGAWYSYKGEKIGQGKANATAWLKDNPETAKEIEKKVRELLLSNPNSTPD
npRecA monomer, sequence (P0A7G6 31-337 C117M/S118V/Q119R): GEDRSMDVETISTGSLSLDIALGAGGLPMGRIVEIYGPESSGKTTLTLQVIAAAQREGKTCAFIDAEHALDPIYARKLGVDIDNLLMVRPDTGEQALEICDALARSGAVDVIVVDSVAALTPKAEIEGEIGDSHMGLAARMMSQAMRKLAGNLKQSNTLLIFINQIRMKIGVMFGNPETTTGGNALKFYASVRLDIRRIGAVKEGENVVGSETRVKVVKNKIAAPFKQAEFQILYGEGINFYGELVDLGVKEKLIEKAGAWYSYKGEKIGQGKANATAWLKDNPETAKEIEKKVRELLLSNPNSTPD

B1: Wild-type RecA (RecA-wt) (natural protein, E. coli, UniProt P0A7G6 1-353, looked up)
chain: MAIDENKQKALAAALGQIEKQFGKGSIMRLGEDRSMDVETISTGSLSLDIALGAGGLPMGRIVEIYGPESSGKTTLTLQVIAAAQREGKTCAFIDAEHALDPIYARKLGVDIDNLLCSQPDTGEQALEICDALARSGAVDVIVVDSVAALTPKAEIEGEIGDSHMGLAARMMSQAMRKLAGNLKQSNTLLIFINQIRMKIGVMFGNPETTTGGNALKFYASVRLDIRRIGAVKEGENVVGSETRVKVVKNKIAAPFKQAEFQILYGEGINFYGELVDLGVKEKLIEKAGAWYSYKGEKIGQGKANATAWLKDNPETAKEIEKKVRELLLSNPNSTPDFSVDDSEGVAETNEDF
notes: wild-type RecA, Escherichia coli; source: purified as previously described (21,33)
For the molecule B1, the binding result in data set [1] is listed as “binds”.

B2: OL2 90-mer ssDNA (ssDNA)
DNA: AAATCAATCTAAAGTATATATGAGTAAACTTGGTCTGACAGTTACCAATGCTTAATCAGTGAGGCACCTATCTCAGCGATCTGTCTATTT
On to B2, for which the binding result in data set [2] and in data set [3] was “no binding” throughout.
